According to patent US20240366728A1 (CARMOT THERAPEUTICS, published 2024):

Key:
Assay in all cases: cell-based or functional assay
[1] = target: T1, human GLP-1R (human, UniProt P43220 24-463)
[2] = target: T2, human GIPR (human, UniProt P48546 22-466)
T2 sequence (looked up): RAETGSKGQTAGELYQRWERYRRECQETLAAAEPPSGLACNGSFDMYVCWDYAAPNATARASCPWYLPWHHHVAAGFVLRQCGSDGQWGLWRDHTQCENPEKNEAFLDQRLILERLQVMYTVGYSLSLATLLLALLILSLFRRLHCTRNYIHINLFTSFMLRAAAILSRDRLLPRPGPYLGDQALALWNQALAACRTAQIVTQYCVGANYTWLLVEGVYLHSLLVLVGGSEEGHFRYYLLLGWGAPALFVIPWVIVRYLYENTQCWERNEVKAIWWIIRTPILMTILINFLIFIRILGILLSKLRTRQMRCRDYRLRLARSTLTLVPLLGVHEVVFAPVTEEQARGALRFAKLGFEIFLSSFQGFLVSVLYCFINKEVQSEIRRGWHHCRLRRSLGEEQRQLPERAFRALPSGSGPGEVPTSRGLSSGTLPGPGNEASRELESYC

[3] = target: T3, mouse GIPR (mouse, UniProt Q0P543 19-460)
T3 sequence (looked up): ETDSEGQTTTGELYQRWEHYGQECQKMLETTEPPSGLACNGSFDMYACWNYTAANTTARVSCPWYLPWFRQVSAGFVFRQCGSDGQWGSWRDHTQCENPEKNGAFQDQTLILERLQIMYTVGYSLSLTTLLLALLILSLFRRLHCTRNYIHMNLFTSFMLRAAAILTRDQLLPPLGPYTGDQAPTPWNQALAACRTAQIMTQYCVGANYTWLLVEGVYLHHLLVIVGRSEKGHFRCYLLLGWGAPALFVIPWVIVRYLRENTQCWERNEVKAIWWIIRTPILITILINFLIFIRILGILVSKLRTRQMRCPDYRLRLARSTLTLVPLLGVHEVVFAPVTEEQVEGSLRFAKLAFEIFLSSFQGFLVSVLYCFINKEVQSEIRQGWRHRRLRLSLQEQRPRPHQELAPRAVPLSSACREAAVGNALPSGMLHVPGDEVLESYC

[4] = target: T4, mouse GLP-1R (mouse, UniProt O35659 22-463)
T4 sequence (looked up): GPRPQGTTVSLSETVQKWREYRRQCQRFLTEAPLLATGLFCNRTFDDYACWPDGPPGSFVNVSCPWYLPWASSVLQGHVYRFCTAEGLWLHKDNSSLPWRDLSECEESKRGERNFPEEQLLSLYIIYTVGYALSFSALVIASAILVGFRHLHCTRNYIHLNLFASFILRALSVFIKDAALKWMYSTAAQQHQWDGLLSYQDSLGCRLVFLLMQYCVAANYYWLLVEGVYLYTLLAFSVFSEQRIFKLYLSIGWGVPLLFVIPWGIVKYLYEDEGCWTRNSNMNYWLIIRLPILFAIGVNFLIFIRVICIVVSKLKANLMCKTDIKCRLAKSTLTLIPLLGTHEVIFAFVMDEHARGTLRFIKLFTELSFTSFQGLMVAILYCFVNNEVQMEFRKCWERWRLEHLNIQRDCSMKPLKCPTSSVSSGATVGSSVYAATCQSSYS

[5] = target: T1, human GLP-1R; remark: listed apart in the source
[6] = target: T2, human GIPR; remark: listed apart in the source

B1: CT-868 (peptide)
peptide: EGTFTSDYSIYLDKQAAXEFVNWLLAGGPSSGAPPPSK
modifications: N-terminal 2-(2-Piperidon-1-yl)-ethylcarbamoylmethylthio-acetyl on Glu; Aib (18th residue of the printed chain); C-terminal Lys(γ-Glu-palmitoyl)-NH2; hydrochloride salt
- fold less potent than GLP-1 (cAMP accumulation) [1]: 6 fold
- fold less potent than GIP (cAMP accumulation) [2]: 16 fold
- ratio GLP-1R over GIPR (cAMP potency) [2]: ~19.4
- mGIPR cAMP (-alb) EC50 [3]: 1.03 nM
- mGIPR β-arrestin-2 EC50 [3]: 6.21 nM
- mGIPR/mGLP-1R cAMP ratio [3]: 6
- mGLP-1R cAMP (-alb) EC50 [4]: 0.164 nM
- mGLP-1R β-arrestin-2 EC50 [4]: 21.1 nM
- hGLP-1R Internalization EC50 [5]: 3.1 nM
- hGLP-1R cAMP (-alb) EC50 [5]: 0.156 nM
- hGLP-1R β-arrestin-2 EC50 [5]: 11 nM
- hGIPR Internalization EC50 [6]: 14 nM
- hGIPR cAMP (-alb) EC50 [6]: 1.9 nM
- hGIPR β-arrestin-2 EC50 [6]: 13 nM
- hGIPR/hGLP-1R cAMP ratio [6]: 12
